Source: patent publication US20100144630

Assays:
[1] = test system: heat-inactivated alpha-1 antitrypsin
[2] = test system: alpha-1 antitrypsin (native, not heat-inactivated)

Elastase
elastase activity: hydrolysis of N-Succinyl-Ala-Ala-Ala-p-nitroanalide, absorbance at 410 nm [1]: combining HIAAT with elastase produced a curve similar to that of elastase alone. This demonstrated that HIAAT possessed no detectable elastase neutralizing activity
elastase activity: hydrolysis of N-Succinyl-Ala-Ala-Ala-p-nitroanalide, absorbance at 410 nm [2]: Combining native (NOT heat-inactivated) AAT ablated elastase processing of the N-Succinyl-Ala-Ala-Ala-p-nitroanalide substrate and blocked the increase in A410 nm
